Source: the RNAGym collection of RNA variant scans (doi:10.1073/pnas.2313332121)

B1: TPR t1 (parent)
chain: GACCAAUCUGCCCUCAGAGCUCGAGAACAUCUUCGGAUGCAGAGGAGGCAGGCUUCGGUGGCGCGAUAGCGCCAACGUCCUCAACCUCCAAUGCAUCCCACCACAUGAUGAUGCCUGAAGAGCCUUGGUUUUUUG

Variants of: B1
Assay: polymerase ribozyme fitness, log enrichment relative to wild type (log ratio); higher = more active; in vitro selection for triplet polymerase activity
In short: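 Libraries of mutants in each subunit of a heterodimeric triplet polymerase ribozyme were generated by PCR and transcribed. In triplicate, each went through one in vitro selection round: annealing with biotinylated primer, partner subunit and triplets; frozen incubation at −7 °C; gel excision of extended constructs; streptavidin-bead capture; RT-PCR. Fitness, taken from Illumina sequencing of input and output libraries, is the logarithm of a genotype's enrichment over wild-type enrichment, averaged across replicates with inverse-variance weights. The logarithm is base 2, and genotypes needed ≥10 input reads and ≥1 read per output to be kept.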

Row | Variant | polymerase ribozyme fitness (log ratio)
1 | G48A U54G C85U | -0.681
2 | C28G U96A | -3.94
3 | U129C G135C | 0.513
4 | C3U U21A A41G G48U C101G C124G | -1.96
5 | G63U C82U G127C | -1.96
6 | A18C G63A U78G | -5.52
7 | C15U C56G G60U U78G U92A | -6.42
8 | A6G G19U C70U | -4.25
9 | U9C G47U G63U | -1.41
10 | A18G A121U | -1.13
11 | A41C G44C | -1.48
12 | C8U G42U A50U | -3.49
13 | C4U C56A C101A G117C | -5.92
14 | C28U A50U | -2.92
15 | C11U U32C C70U C98U C124G | -1.48
16 | C20A C70A C123A U130A | -4.36
17 | C40A A46U C79G C104U | -6.75
18 | C4G G10C C115U | -3.25
19 | U21A A27C | -3.89
20 | G52A G61A U132A | -0.488
21 | G71U C124A | 2.05
22 | A16G G69C A84G C102A C114U C115A | -6.44
23 | C31U C124U | -3.64
24 | G45A G69U C99U A111G | -0.775

Row | Variant | polymerase ribozyme fitness (log ratio)
25 | C40A A74G U130C | -0.804
26 | C8A U112C U125A | 1.71
27 | C99U U132A | -2.96
28 | C3U U112C | 1.51
29 | U9A C13G C20A A43G A95G | -4.1
30 | A29G G120U U132A | -1.63
31 | C3A A43U | -2.69
32 | G19C C20U C31G C89U U109C C123U | -7.81
33 | A18G C20A C64A A111G U112A | -6.09
34 | C72G C86G A121U U125A G135U | -2.76
35 | U14A A18C G113A C123U | -4.67
36 | G77U G113A | -1.38
37 | C8U U21C U87G G122A | -0.0757
38 | C40U C70A G128A | -4.95
39 | C13G C114U | -2.83
40 | C8U C62A C98U | -1.15
41 | G57A G69U | -0.426
42 | C12U C62A C73U G77U | -3.65
43 | U9G C12A U14G G63U C99A G120C | -6.39
44 | U7C C8A C62A | -0.194
45 | G58A G71U C79A | -1.79
46 | C49U A50C A111G | 0.0314
47 | G10U U92G C94U U133A | -2.28
48 | A16U G77A G117U | -3.13

Row | Variant | polymerase ribozyme fitness (log ratio)
49 | C34U G45C C124G | -3.01
50 | A27U C72G U78A | -3.94
51 | A5C A26U C62U | -4.3
52 | G93A G113U C114G | -2.9
53 | C11U G61A C94G | -0.792
54 | G61A U129G U130A | -2.53
55 | C22U G48C C53G C56A | -4.86
56 | C49U C115A | -0.871
57 | C8G A26U A29G | -3.46
58 | G60U C76U | -2.74
59 | A6G C11G C70G A118U | -1.53
60 | C20A G42U | -4
61 | G61A C85G | 0.134
62 | C13G C86G A90C A95G | -4.51
63 | C12A C56U A95G C115A C124A | 0.771
64 | C13A C53A C115U A119U | 0.949
65 | G10A G71A A83C U106A A108U | -1.78
66 | G48U C89A | -1.52
67 | G69C C123A | -0.685
68 | C79U U81A | -1.75
69 | C62U U133A | -0.403
70 | A50G C53U G61C A90G G113A | -1.82
71 | G48U C49G | -0.587
72 | C12U G35A C62U G117A | -6.59

Row | Variant | polymerase ribozyme fitness (log ratio)
73 | C15A G39A | -2.28
74 | U81C C97U C114A | -3.09
75 | C12U C20U C22A G45U C70U A83U A118U | -6.7
76 | C13G G52U A68G A111C C124U U133C | -4.14
77 | C40A G77A A84U C94U U106A | -2.81
78 | A2C A37U C73U G93A G120C | -2.44
79 | C56U C82G U130C | -0.672
80 | C28A G71C C89G A121U C124A | -5.37
81 | U32C G60U A66G C89G | -6.79
82 | G45U C72U U87A | -1.19
83 | A6U C34G G45C C49A C123U | -5.99
84 | G44A G120C | 0.014
85 | A26U C82G C115U | -5.9
86 | G77U C101G G127A | -2.44
87 | C22A C73A | -4.25
88 | U7C C13U C15A G45A C72A | -0.674
89 | A29C G57U G120U | -2.96
90 | A16G G65U C73G C89A C123A | -7.69
91 | G44A C88U | -1.23
92 | C11U G45A U78A C86A U106A U125A | -6.24
93 | G19U G23C A27G A41C A46U G47C C70U C115U G135A | -5.42
94 | C3A G45U C72G U87C | -3.73
95 | C20A G42C A43G | -3.32
96 | C114U U133A | -1.63

Row | Variant | polymerase ribozyme fitness (log ratio)
97 | A66G C123G U133A | 1.16
98 | G10U C70U A83U A90G C115U | -2.59
99 | C13U G39U G61C | -1.9
100 | G71A A111G | -0.423
101 | G23A A121U | -2.19
102 | C114U | -1.7
103 | A6U G60A C97G A111G U125A G135A | -6.23
104 | C34G G63U C72U G110U | -8.01
105 | G61U C79A C104U | -0.851
106 | G36A C102A C104A G120U | -4.83
107 | G63C C104U | -0.59
108 | C4U C11G C12A G19C C62G | -4.71
109 | U21C C22A G69C | -4.23
110 | C40U G47A | -2.33
111 | C13G A37C U112C | -0.647
112 | A6U A46G C53G G117U | -2.98
113 | G51C U59A C82U C98U | -5.66
114 | A16G A46U C124U | -0.673
115 | G60A G77C A111C C123A | -3.68
116 | A43G C72U U112C G122U | -0.894
117 | A16U C70G | -2.98
118 | U21G G63C U78A C115U A119U U130A | -5.59
119 | G69A C124U | -1.25
120 | A37U G69C C89U | -2.29

Row | Variant | polymerase ribozyme fitness (log ratio)
121 | A41G G63A A75G C85A U133A | -3.04
122 | C8A G58C U59C A105C U132A | -2.68
123 | A50G C99U G110C | -7.74
124 | C56G C73G | -2.66
125 | C11A U38C | -2.34
126 | C34A G35U G48C | -3.95
127 | A84C C114G G127A | -4.73
128 | A37U G57A C89G | -3.91
129 | A41C G42U G71A U81C | -4.72
130 | U55C G71C C104U | -0.984
131 | C85A C104U | -1.07
132 | A27U C82G U106A G120C | -1.62
133 | U54A G69C | -1.12
134 | U92G U109A C124A U131A | -6.86
135 | C28U G61C U106A G113C | -5.31
136 | G17U C20G G52A C73A G113A A119G | -1.98
137 | U9C A41U C70A U125A | -4.15
138 | U96A G128U | -1.89
139 | A5U G48U C56U G93A | -0.937
140 | U9G C11G G45C | -5.66
141 | G57U G63A C89G | -3.98
142 | G17A A43G G127A | -4.18
143 | A16U C89A | -2.6
144 | C15G C114U | -4.3

Row | Variant | polymerase ribozyme fitness (log ratio)
145 | C56A U78C C98A G122A C123U U132A | -5.25
146 | A6C G47U G69C C85A | -4.06
147 | U32C A84U | -0.174
148 | G60C G61A C101A C123A U129A | -4.67
149 | C76A A121U U125G | 0.374
150 | A26G C28G C104U | -2.85
151 | C62U G63C | -2.14
152 | G42U C62U | -1.69
153 | C40G A43U U112G A119U U126A | -4.57
154 | G48U G93A | -0.946
155 | G42U G61U U92A C94A | -3.57
156 | C22A G52A G60A G117U C123U U131C | -6.69
157 | G10U U14A | -1.65
158 | A26G G51U C101U | -5.8
159 | U87C A105G | -1.78
160 | C8U A119G U126G G127U | -0.0945
161 | U7A A41U C72A C85U | -0.761
162 | C34U A95C | -5
163 | C20U G117U | -3.53
164 | C3G C94G C114U G128C | -2.66
165 | C11U C104G | -6.74
166 | C3U G69A | -2.67
167 | G71U C99A | -7.48
